# Assay: melting temperature; melt of duplexes
# Conditions: sodium 0.0675 M; strand 1 µM
row,Substance,Tm [°C]
1,CGACGTGCGTCATGTGCTG+CAGCACATTGTGCACGTCG ((((((((...((((((((+))))))))...)))))))),46.3
2,CGACGTGCAAAATGTGCTG+CAGCACATCGAGCACGTCG ((((((((...((((((((+))))))))...)))))))),49.2
3,CGACGTGCTAGATGTGCTG+CAGCACATTACGCACGTCG ((((((((...((((((((+))))))))...)))))))),50.1
4,CGACGTGCCAAATGTGCTG+CAGCACATGATGCACGTCG ((((((((...((((((((+))))))))...)))))))),50.3
5,CGACGTGCGATATGTGCTG+CAGCACATGCTGCACGTCG ((((((((...((((((((+))))))))...)))))))),49.8
6,CGACGTGCGGTATGTGCTG+CAGCACATTGTGCACGTCG ((((((((...((((((((+))))))))...)))))))),47.2
7,CGACGTGCCTGATGTGCTG+CAGCACATTGGGCACGTCG (((((((((..((((((((+))))))))..))))))))),57.1
8,CGACGTGCTGTATGTGCTG+CAGCACATGTAGCACGTCG (((((((((..((((((((+))))))))..))))))))),53.3
9,CGACGTGCCTGATGTGCTG+CAGCACATATGGCACGTCG (((((((((..((((((((+))))))))..))))))))),55.8
10,CGACGTGCGTGATGTGCTG+CAGCACATTGCGCACGTCG (((((((((..((((((((+))))))))..))))))))),58
11,CGACGTGCTAAATGTGCTG+CAGCACATGTTGCACGTCG ((((((((.(.((((((((+)))))))).).)))))))),52.6
12,CGACGTGCGATATGTGCTG+CAGCACATCCTGCACGTCG ((((((((...((((((((+))))))))...)))))))),49.5
13,CGACGTGCTCCATGTGCTG+CAGCACATCGTGCACGTCG ((((((((.(.((((((((+)))))))).).)))))))),44.7
14,CGACGTGCACCATGTGCTG+CAGCACATCCTGCACGTCG (((((((((..((((((((+))))))))..))))))))),44.7
15,CGACGTGCACCATGTGCTG+CAGCACATGTTGCACGTCG (((((((((.(((((((((+))))))))).))))))))),55
16,CGACGTGCCTTATGTGCTG+CAGCACATTGCGCACGTCG ((((((((...((((((((+))))))))...)))))))),48.4
17,CGACGTGCGATATGTGCTG+CAGCACATCATGCACGTCG ((((((((...((((((((+))))))))...)))))))),50.1
18,CGACGTGCTTGATGTGCTG+CAGCACATTGGGCACGTCG ((((((((...((((((((+))))))))...)))))))),50.7
19,CGACGTGCTAAATGTGCTG+CAGCACATATAGCACGTCG ((((((((((.((((((((+)))))))).)))))))))),55.4
20,CGACGTGCACTATGTGCTG+CAGCACATGTTGCACGTCG (((((((((..((((((((+))))))))..))))))))),48.9
21,CGACGTGCGATATGTGCTG+CAGCACATGCCGCACGTCG (((((((((..((((((((+))))))))..))))))))),54.8
22,CGACGTGCGACATGTGCTG+CAGCACATCACGCACGTCG (((((((((..((((((((+))))))))..))))))))),52.7
23,CGACGTGCTAAATGTGCTG+CAGCACATGCAGCACGTCG (((((((((..((((((((+))))))))..))))))))),55.2
24,CGACGTGCGTGATGTGCTG+CAGCACATGGGGCACGTCG ((((((((...((((((((+))))))))...)))))))),51.2
25,CGACGTGCGCGATGTGCTG+CAGCACATCGCGCACGTCG (((((((((((((((((((+))))))))))))))))))),69.3
26,CGACGTGCGGGATGTGCTG+CAGCACATATAGCACGTCG ((((((((...((((((((+))))))))...)))))))),52.8

row,Substance,Tm [°C]
1,CGACGTGCCTTATGTGCTG+CAGCACATGCGGCACGTCG (((((((((..((((((((+))))))))..))))))))),52.3
2,CGACGTGCAAAATGTGCTG+CAGCACATCCCGCACGTCG ((((((((...((((((((+))))))))...)))))))),47.2
3,CGACGTGCTCCATGTGCTG+CAGCACATTCCGCACGTCG ((((((((...((((((((+))))))))...)))))))),45.6
4,CGACGTGCGACATGTGCTG+CAGCACATGTCGCACGTCG (((((((((((((((((((+))))))))))))))))))),67.2
5,CGACGTGCCTCATGTGCTG+CAGCACATGCAGCACGTCG ((((((((..(((((((((+)))))))))..)))))))),52.8
6,CGACGTGCCAAATGTGCTG+CAGCACATCGAGCACGTCG ((((((((...((((((((+))))))))...)))))))),49.6
7,CGACGTGCACTATGTGCTG+CAGCACATTGGGCACGTCG ((((((((.(.((((((((+)))))))).).)))))))),53.3
8,CGACGTGCGACATGTGCTG+CAGCACATAAAGCACGTCG ((((((((...((((((((+))))))))...)))))))),55.2
9,CGACGTGCTCAATGTGCTG+CAGCACATACAGCACGTCG (((((((((..((((((((+))))))))..))))))))),50.7
10,CGACGTGCAGGATGTGCTG+CAGCACATAACGCACGTCG ((((((((...((((((((+))))))))...)))))))),50.8
11,CGACGTGCTTCATGTGCTG+CAGCACATATAGCACGTCG (((((((((..((((((((+))))))))..))))))))),51.5
12,CGACGTGCCGTATGTGCTG+CAGCACATTAAGCACGTCG ((((((((...((((((((+))))))))...)))))))),49.1
13,CGACGTGCACAATGTGCTG+CAGCACATAGAGCACGTCG ((((((((.(.((((((((+)))))))).).)))))))),48.4
14,CGACGTGCGTCATGTGCTG+CAGCACATTTCGCACGTCG (((((((((..((((((((+))))))))..))))))))),53.1
15,CGACGTGCCGGATGTGCTG+CAGCACATTGTGCACGTCG ((((((((...((((((((+))))))))...)))))))),47.3
16,CGACGTGCCCGATGTGCTG+CAGCACATTAAGCACGTCG ((((((((...((((((((+))))))))...)))))))),49.5
17,CGACGTGCGAAATGTGCTG+CAGCACATTGGGCACGTCG ((((((((..(((((((((+)))))))))..)))))))),54.5
18,CGACGTGCGTGATGTGCTG+CAGCACATTAAGCACGTCG ((((((((.(.((((((((+)))))))).).)))))))),54.5
19,CGACGTGCTTAATGTGCTG+CAGCACATTACGCACGTCG ((((((((.((((((((((+)))))))))).)))))))),54.8
20,CGACGTGCTGCATGTGCTG+CAGCACATTGTGCACGTCG ((((((((...((((((((+))))))))...)))))))),45.5
21,CGACGTGCAGGATGTGCTG+CAGCACATCAGGCACGTCG ((((((((..(((((((((+)))))))))..)))))))),56.6
22,CGACGTGCTCCATGTGCTG+CAGCACATAGGGCACGTCG ((((((((.(.((((((((+)))))))).).)))))))),52.3
23,CGACGTGCCAGATGTGCTG+CAGCACATCGCGCACGTCG ((((((((..(((((((((+)))))))))..)))))))),55.4
24,CGACGTGCACCATGTGCTG+CAGCACATGTGGCACGTCG ((((((((..(((((((((+)))))))))..)))))))),53.4
25,CGACGTGCCGAATGTGCTG+CAGCACATCTTGCACGTCG ((((((((...((((((((+))))))))...)))))))),48.8
26,CGACGTGCTCTATGTGCTG+CAGCACATAAGGCACGTCG ((((((((..(((((((((+)))))))))..)))))))),52.2

# From the array DNA melting data of Ke et al.
